Paper PMC6035275, “Structures of DNA-bound human ligase IV catalytic core reveal insights into substrate binding and catalysis”

B1: nicked DNA duplex (crystal), 5'-phosphate downstream primer (dsDNA)
DNA 1: GTCCGACGACGCATCAGC
DNA 2: GCTGATGCGTC
DNA 3: GTCGGAC
modifications: upstream primer 3'-dideoxycytidine; downstream primer 5'-phosphate
B2: nicked DNA-adenylate duplex (crystal), 5'-AMP downstream primer (dsDNA)
DNA 1: GTCCGACGACGCATCAGC
DNA 2: GCTGATGCGTC
DNA 3: GTCGGAC
modifications: upstream primer 3'-dideoxycytidine; downstream primer 5'-adenylated (AMP-p, transferred from K273 in the complex)

Columns and labels:
[1] = biological target: T1, DNA ligase IV catalytic domain (lysyl-AMP at K273 in open complex) (human, UniProt P49917 1-620); assay: X-ray crystallography; lysyl-AMP (K273), open conformation, 10 mM MgCl2; 3.25 A; Crystals: protein pre-incubated with 4 mM MgCl2, 1 mM ATP, 1 h on ice, DNA added at 2:1 molar ratio, 1 h on ice; HEPES pH 7.5 (77-79 mM), ~7.8% isopropanol, ~15.5% PEG4000, ~13.6% glycerol, +/- 10 mM MgCl2, room temperature. Mutants only tested by ligation turnover (no binding read-out).; details: protein: recombinant; tags: 6xHis-SUMO, removed with Ulp1; nicked duplex, 18 bp, blunt ends; nick between strand 2 (11 nt) and strand 3 (7 nt)
T1 sequence: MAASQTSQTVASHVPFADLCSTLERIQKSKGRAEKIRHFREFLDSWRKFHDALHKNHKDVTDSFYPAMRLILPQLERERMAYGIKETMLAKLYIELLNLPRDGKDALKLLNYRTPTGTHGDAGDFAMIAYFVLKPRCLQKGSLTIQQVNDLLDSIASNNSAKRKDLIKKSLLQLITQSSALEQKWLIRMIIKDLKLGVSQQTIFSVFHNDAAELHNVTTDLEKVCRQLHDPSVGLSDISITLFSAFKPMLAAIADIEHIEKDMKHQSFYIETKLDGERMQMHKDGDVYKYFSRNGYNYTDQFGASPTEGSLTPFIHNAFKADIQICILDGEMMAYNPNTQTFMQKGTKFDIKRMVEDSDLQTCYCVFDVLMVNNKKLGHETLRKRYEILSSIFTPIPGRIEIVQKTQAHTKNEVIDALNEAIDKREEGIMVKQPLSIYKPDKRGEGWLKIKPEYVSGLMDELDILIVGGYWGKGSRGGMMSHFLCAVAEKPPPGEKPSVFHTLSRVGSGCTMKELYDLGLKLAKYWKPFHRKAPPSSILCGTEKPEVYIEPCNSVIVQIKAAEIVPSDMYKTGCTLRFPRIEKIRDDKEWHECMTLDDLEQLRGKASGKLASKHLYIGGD

[2] = biological target: T1, DNA ligase IV catalytic domain …; assay: X-ray crystallography; DNA-adenylate, closed conformation, no metal bound; Crystals: protein pre-incubated with 4 mM MgCl2, 1 mM ATP, 1 h on ice, DNA added at 2:1 molar ratio, 1 h on ice; HEPES pH 7.5 (77-79 mM), ~7.8% isopropanol, ~15.5% PEG4000, ~13.6% glycerol, +/- 10 mM MgCl2, room temperature. Mutants only tested by ligation turnover (no binding read-out).; details: protein: recombinant; tags: 6xHis-SUMO, removed with Ulp1; nicked duplex, 18 bp, blunt ends; nick between strand 2 (11 nt) and strand 3 (7 nt)

Binder | binding result [1] | binding result [2]
B1 | binds | 
B2 |  | binds
